Usually koff stands for the first-order rate constant of dissociation.

Experimental findings from US20180305451A1 (COMPUGEN, published 2018) are described below.

The target of assay [1] is T1, HIDE1_HH-1 (Human ECD + human IgG1 Fc mutated C220S at hinge), without SP (human).
T1 construct: Batch #280 in the Serotec and phage display work; also called HIDE1 hECD-hIg; HIDE1 (H:H) recombinant Fc fusion protein
Nature of the assay: SPR (ProteOn XPR 36): HIDE1-HH-1 captured on goat anti-human Fc GLC chip, Fab periplasmic extract injected 2 min, undiluted and 3-fold dilutions, 10 min dissociation. The protocol:
A high density goat anti-human Fc antibody (Invitrogen) was immobilized by standard amine coupling over all lanes of a GLC chip using a ProteOn XPR 36 biosensor (Biorad). This surface was used to capture the recombinant HIDE1-H:H fusion protein (GenScript Lot 393383-21, batch #280) or a control Fc fusion protein (CD155, Sino Biologicals) in the vertical flow-cell direction at a concentration of ˜0.5 μg/mL for 90 seconds.
Each anti-HIDE1 Fab PPE sample was then injected at three concentrations (undiluted fab supernatant and two three-fold serial dilutions) in the horizontal direction over the captured fusion proteins. The dilutions were made using degassed PBS with 0.05% Tween 20 and 0.01% BSA. PPEs were injected for two minutes followed by 10 minutes of dissociation at a flow rate of 50 μL/min. The starting concentration range for each Fab is recorded in Table 39. The anti-human fc capture surfaces were regenerated with two 30-second pulses of 146 mM phosphoric acid after each cycle.

In assay [2] the target is T2, mouse HIDE1 Flag (mouse, UniProt Q75VT8 22-222).
T2 construct: Over-expressed on HEK293 and EL4 cells (pMSCV); whole cell extracts in WB; also called mHIDE1 flag; not shown: Flag tag
T2 sequence: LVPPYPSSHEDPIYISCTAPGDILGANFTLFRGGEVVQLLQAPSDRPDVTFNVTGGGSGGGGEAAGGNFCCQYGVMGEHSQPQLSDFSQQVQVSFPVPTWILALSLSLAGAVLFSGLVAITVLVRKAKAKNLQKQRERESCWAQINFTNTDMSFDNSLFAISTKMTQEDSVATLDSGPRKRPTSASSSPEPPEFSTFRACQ
Nature of the assay: Western blot of whole cell extracts, goat anti-mouse HRP.

Assay [3] deals with T3, human HIDE1-flag (human, UniProt A8MVS5 20-230).
T3 construct: Over-expressed on HEK293, SK-MEL-5, CHO-S and CHO-S OKT3 cells (pMSCV or pcDNA3.1); whole cell extracts in WB; Entry includes the signal peptide; also called hHIDE1 Flag
T3 sequence: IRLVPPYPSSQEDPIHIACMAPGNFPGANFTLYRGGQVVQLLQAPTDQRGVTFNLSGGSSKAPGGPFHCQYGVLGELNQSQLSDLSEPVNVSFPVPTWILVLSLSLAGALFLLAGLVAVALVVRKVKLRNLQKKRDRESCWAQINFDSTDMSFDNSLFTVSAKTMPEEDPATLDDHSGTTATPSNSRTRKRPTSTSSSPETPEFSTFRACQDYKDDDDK
Nature of the assay: FACS titration on CHO-S cells over-expressing human HIDE1 Flag (curves in FIG. 96A). The protocol:
(§1) FIG. 96: Affinity measurements using FACS application for the anti-human HIDE1 reformatted Fab's on CHO-S cells over-expressing human HIDE1 Flag protein. (A)CHO-S cells over-expressing the human HIDE1 Flag (circle dots) or HEK293 transduced with empty vector (square dots) were analyzed by FACS using Serotec anti-Human HIDE1 reformatted antibodies (1-5) in 7 concentrations-series dilution 1:3, 10-0.01 μg/ml. Detection was carried out using Goat Anti Human-PE secondary Ab. (B) Summary table of Serotec anti-human HIDE1 reformatted antibodies 1-5 FACS analysis, the Geo mean ratio of HEK293 cells over-expressing the human HIDE1 Flag/HEK293 transduced with empty vector and the cross reactive validation, the Geo-mean ratio of HEK293 cells over-expressing the mouse/cyno HIDE1 Flag/HEK293 transduced/transfected with empty vector. And Kd (nM) for each reformatted Fab.
The affinity The affinity measurements of the reformatted Serotec's Ab's (full hIgG1 Abs) against human HIDE1, using FACS application were tested using CHO-S cell over-expressing human HIDE1. CHO-S cells transduced with an empty vector were used as a negative control.
As shown in FIG. 96. the binding of 5 out of 5 anti-human HIDE1 reformatted Ab's (1-5) to the CHO-S cells over-expressing human HIDE1 Flag protein (circle dots) is higher than the binding of these reformatted Ab's to the empty vector cells (square dots). Two of the five antibodies (2 and 3) reaches saturation at the concentrations that were measured. The Kd value and R square are represented in the figure.

Assay [4] deals with T3, human HIDE1-flag. As to the kind of experiment: FACS, Geo mean ratio of HEK293 cells over-expressing human HIDE1 Flag to HEK293 empty vector, antibody 10 ug/ml. The protocol:
as §1
The performance of the reformatted Serotec's antibodies against human HIDE1, in FACS application were tested using HEK293 cell over-expressing human HIDE1 Flag, mouse HIDE1 or cyno HIDE1. HEK293 cells transduced/transfected with an empty vector were used as a negative control

The target in assay [5] is T1, HIDE1_HH-1 (Human ECD + human IgG1 Fc …). As to the kind of experiment: BLI Octet RED384, bivalent Fab-A-FH. (In general: BLI is a label-free optical method that tracks binding on a fibre tip over time.)
Assay [6] addresses T3, human HIDE1-flag. Nature of the assay: FACS, HEK293 human HIDE1 Flag cells vs HEK293 empty vector, goat anti-human IgG F(ab')2-PE. Background: In flow cytometry, cells or beads pass a laser one at a time.

T1 sequence (chain, as listed by the source C220S C220S limits assumed): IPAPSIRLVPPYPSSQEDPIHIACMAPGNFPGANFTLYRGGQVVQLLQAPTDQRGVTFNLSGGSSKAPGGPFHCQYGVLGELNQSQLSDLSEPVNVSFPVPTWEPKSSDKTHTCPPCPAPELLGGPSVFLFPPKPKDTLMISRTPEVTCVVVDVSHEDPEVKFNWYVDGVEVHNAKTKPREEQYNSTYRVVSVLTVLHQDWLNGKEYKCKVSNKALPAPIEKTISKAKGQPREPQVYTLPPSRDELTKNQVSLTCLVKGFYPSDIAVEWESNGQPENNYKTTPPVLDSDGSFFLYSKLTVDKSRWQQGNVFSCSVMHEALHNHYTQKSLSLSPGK

B1: B09 S404-01.C08 (Fab, V domains shown)
VH: QVQLVESGGGVVQPGRSLRLSCAASGFTFSSYAMHWVRQAPGKGLEWVAVISYDGSNKYYADSVKGRFTISRDNSKNTLYLQMNSLRAEDTAVYYCARSSGSSWSNIAYWGQGTLVTVSS
VL: QSVLTQPPSVSGAPGQRVTISCIGSSSNIGAGYDVHWYRQLPGTAPKLLIYDNTNRPSGVPDRFSASKSGISASLAITGLQAEDEADYYCQSYDSNLSGVFGGGTQLTVL
notes: Fab form of CPA.12.012 (IgG4 form is m55); complex kinetics; copies: 1 + 1
With B1, the binding result in assay [1] is reported as “binds”.

B2: Mouse anti human HIDE1 mAb (Biotem #39A7-3A10-3G8) (antibody, mouse IgG1, kappa, V domains shown)
VH: QVQLQQSGAELVRPGASVKLSCKALGYTFTDYEMHWVKQTPVHGLEWIGDIYPGSGGTAYNQKFKGKATLTADKSSSTAYMELSSLTSEDSAVYYCTRKGRSFAYWGQGTLVTVSA
VL: NIVMTQSPKSMSMSVGERVTLSCKASENVDTYVSWYQQKPEQSPKLLIYGASNRYTGVPDRFTGSGSATDFTLIISSVQAEDLADYHCGQSYRYPLTFGAGTKLELKR
notes: Mouse IgG1; also called 39A7-39A10-3G8
B2: the binding result in assay [2] is on record as “no binding (tested: 2 µg/ml)”.

B3: αhHIDE1_AbD25760_hIgG1_Ser_mAb (antibody, V domains shown)
VH: QVQLVQSGAEVKKPGSSVKVSCKASGGTFSDYAINWVRQAPGQGLEWMGGIIPNFGTANYAQKFQGRVTITADESTSTAYMELSSLRSEDTAVYYCARGMRSLGGLSYYFDLWGQGTLVTVSS
VL: DIQMTQSPSSLSASVGDRVTITCRASQSINSYLNWYQQKPGKAPKLLIYAASSLQSGVPSRFSGSGSGTDFTLTISSLQPEDFATYYCQQYIHYPITFGQGTKVEIK
notes: also called AB-510; Ab-510
Regarding B3, the Kd in assay [3] came out at 96.7 nM. For the same molecule, the “rMFI OX/EV, 10ug/ml, hHIDE1” value in assay [4] was 117.

B4: αhHIDE1_AbD25754.1_Ser_Fab (Fab)
heavy: QVQLVQSGAEVKKPGASVKVSCKASGYTFSGYGMHWVRQAPGQGLEWMGIISPSNGNTNYAQKFQGRVTMTRDTSISTAYMELSRLRSEDTAVYYCAREVYYGLDVWGQGTLVTVSSASTKGPSVFPLAPSSKSTSGGTAALGCLVKDYFPEPVTVSWNSGALTSGVHTFPAVLQSSGLYSLSSVVTVPSSSLGTQTYICNVNHKPSNTKVDKKVEPKSEFKAEMPVLENRAAQGDITTPGGARRLTGDQTAALRDSLSDKPAKNIILLIGDGMGDSEITAARNYAEGAGGFFKGIDALPLTGQYTHYALNRKTGKPDYVTSSAASATAWSTGVKTYNGALGVDIHEKDHPTILEMAKAAGLATGNVSTAELQDATPAALVAHVTSRKCYGPSATSEKCPGNALEKGGKGSITEQLLNARADVTLGGGAKTFAETATAGEWQGKTLREQAQARGYQLVSDAASLNSVTEANQQKPLLGLFADGNMPVRWLGPKATYHGNIDKPAVTCTPNPQRNDSVPTLAQMTDKAIELLSKNEKGFFLQVEGASIDKQDHAANPCGQIGETVDLDEAVQRALEFAKKEGNTLVIVTADHAHASQIVAPDTKAPGLTQALNTKDGAVMVMSYGNSEEDSQEHTGSQLRIAAYGPHAANVVGLTDQTDLFYTMKAALGLKGAPDYKDDDDKGAPHHHHHH
light: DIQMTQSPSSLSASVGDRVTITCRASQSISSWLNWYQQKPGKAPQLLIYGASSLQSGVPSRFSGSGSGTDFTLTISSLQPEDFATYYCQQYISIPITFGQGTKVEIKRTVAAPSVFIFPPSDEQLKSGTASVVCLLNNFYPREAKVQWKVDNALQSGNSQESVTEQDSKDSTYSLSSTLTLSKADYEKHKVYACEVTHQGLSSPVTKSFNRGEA
modifications: Fab-A-FH format: the Fd chain carries bacterial alkaline phosphatase (which dimerises it, making the Fab bivalent), then FLAG and His6; all of these are in the letters.
notes: Serotec HuCAL Fab-A-FH; also called Ab332
With B4, in assay [5], the Kd was determined as 0.1 nM and the koff was 6.09e-05 s⁻¹. The “FACS analysis (GeoMean fold) human HIDE1/empty vector” value in assay [6] is 145 fold.

B5: αhHIDE1_AbD25753.1_Ser_Fab (Fab)
heavy: EVQLVQSGAEVKKPGESLKISCKGSGYSFTNYWIHWVRQMPGKGLEWMGIIDPGNSFTRYSPSFQGQVTISADKSISTAYLQWSSLKASDTAMYYCARGDGLYGGSDGYSMGGFDNWGQGTLVTVSSASTKGPSVFPLAPSSKSTSGGTAALGCLVKDYFPEPVTVSWNSGALTSGVHTFPAVLQSSGLYSLSSVVTVPSSSLGTQTYICNVNHKPSNTKVDKKVEPKSEFKAEMPVLENRAAQGDITTPGGARRLTGDQTAALRDSLSDKPAKNIILLIGDGMGDSEITAARNYAEGAGGFFKGIDALPLTGQYTHYALNRKTGKPDYVTSSAASATAWSTGVKTYNGALGVDIHEKDHPTILEMAKAAGLATGNVSTAELQDATPAALVAHVTSRKCYGPSATSEKCPGNALEKGGKGSITEQLLNARADVTLGGGAKTFAETATAGEWQGKTLREQAQARGYQLVSDAASLNSVTEANQQKPLLGLFADGNMPVRWLGPKATYHGNIDKPAVTCTPNPQRNDSVPTLAQMTDKAIELLSKNEKGFFLQVEGASIDKQDHAANPCGQIGETVDLDEAVQRALEFAKKEGNTLVIVTADHAHASQIVAPDTKAPGLTQALNTKDGAVMVMSYGNSEEDSQEHTGSQLRIAAYGPHAANVVGLTDQTDLFYTMKAALGLKGAPDYKDDDDKGAPHHHHHH
light: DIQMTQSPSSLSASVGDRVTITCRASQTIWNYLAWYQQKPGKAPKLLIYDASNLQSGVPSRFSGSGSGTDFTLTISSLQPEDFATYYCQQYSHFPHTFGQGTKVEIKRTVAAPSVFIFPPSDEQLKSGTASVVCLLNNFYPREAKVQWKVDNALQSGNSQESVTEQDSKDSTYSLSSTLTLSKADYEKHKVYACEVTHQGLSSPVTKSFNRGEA
notes: Serotec HuCAL Fab-A-FH
Take B5: in assay [5], the Kd amounted to 0.07 nM and the koff was 4.45e-05 s⁻¹. The “FACS analysis (GeoMean fold) human HIDE1/empty vector” value in assay [6] amounted to 150 fold.
